Assay: yeast display, Sf9 membrane polyspecificity reagent, FACS + sequencing; frameworks hold sequencing errors
Procedure, shortened: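 Nanobodies from a synthetic yeast display library (Saccharomyces cerevisiae BJ5465), induced 36–48 hours with galactose, were stained 1 hour at 4 °C with 10% biotinylated, detergent-solubilized Sf9 membrane reagent, enriched on streptavidin microbeads, then FACS-sorted. Anti-HA (expression) and streptavidin (reagent binding) fluorescence set low and high (top ~1%) gates. Polyreactivity labels come from the gate of origin. Genes were colony-PCR amplified, MiSeq 2 × 250 sequenced and filtered by CDR length.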

Sequence	polyreactivity (PSR sort gate)
KVQHVESGGGLVQAGGSLRLSCAASGLTFYTNAMGWYRQPPGKESEFVADITTSGGDTYYADSVKGRFTISRDNAKNTVYLQMNSLKPEDTAVYYCGEFWSYWGYGQYDYWGQGTQVTVSS	low polyreactivity
KVQLGESGGGLVQAGGSLRLSCAASGFIFGYNGMGWYRQAPGKERELVAGITYSDGSTYYADSVKGRFTISRDNAKNTVYLQMNSLKPEDTAVYYCAVDVIYYWAEDYDYWGQGTQVTVSS	low polyreactivity
KVQLVDSGGGLVQAGGSLRLSCAASGSIFGDNAMGWYIQAPGKERELVAAISIVGSTSYADSVKGRFTISRDNAKNTVYLLMNSLKPEDTAVYYCAAENVRSDTGFDYCGQGTQVTVSS	low polyreactivity
KVQLVESGAGLVQAGGSLRFSCAASGSIFIVYAMGWYRPAPGKERELVADITNGGDTNYADSVKGRFTISRDNAKNTVYLQMNSLKPEDTAVYYCAKYLWSYRVRTNVWRSYYWGQGTQVSVSS	high polyreactivity
KVQLVESGGGFVQAGGSLRLSCAPSGSIFTWNAMGLYRQAPGKERELVAAITRGGSTYADSVKGRFTLSRDNAKNTVYLQMNSLKPEDTAVYYCNAVYGVYEFNYWGQGTQVTVSS	low polyreactivity
KVQLVESGGGLVHAGGSLRLSCAASGRIIYYYAMGWYRTAPGKERELVAAISGRGTSTYYADSVKGRFTISRDNAKNTVYLKMNSLKPEDTAVYYCAARYYYWGQGTQVTVSS	high polyreactivity
KVQLVESGGGLVHAGGSLRLSCAASGRTLYTNAMGWYRQAPGTERELVAAITSGASTNYADSVKGRFTISRDNAKNTVYLQMNSLKPEDTAVYYCAARTDHLWNARRYDYWGQGTQVTVSS	low polyreactivity
KVQLVESGGGLVQAGGSIRLSCDASGRSFYYYAMGWYRQAPGKEREWVAAINTRGTSTYYADSVKGRFTISRDNAKNTVYLQMNSLKPEDTAVYYCAVDPYGDSWEDWFRNYYYGYDYWGQGTQGTVSS	low polyreactivity
KVQLVESGGGLVQAGGSLRLSCAASGIFLDRNAMGWYRQAPGKERELVAAINSIGGSTYYADSVKGRFTISRDNAKNTVYLQMNSLKPEDTAVFYCAAPSTSSYYWGQGTQVTVSS	low polyreactivity
KVQLVESGGGLVQAGGSLRLSCAASGNTFYHYAMGWYRQAPGKERELVAGIRYNGGSTYYADSVKGRFTISRDNAKNTVYLHMKSLKPEDTAVYYCATKGYTGYAYRYGYWGQGTQVTVSS	high polyreactivity
KVQLVESGGGLVQAGGSLRLSCAASGSIFDLYTMGWYRQAPGKERELVATISSGGSTNYADSVKGRFTISRDNAKNTVNLQMNSLKPEDTAVYYCAAGSTHYDIHFDYWGQGTQVTVSS	low polyreactivity
KVQLVESGGGLVQAGGSLRLSCAASGSIFTFNAMGWYRQAPGKERELVAAIRWSSGRTYYADSVKGRFTISRDNAKNTVYLQMNSLKPEDTAVYFCAAKDFGSFYESGYDYWGQGTQVTVSS	high polyreactivity
KVQLVESGGGLVQAGGSLRLSCAASGSNFVYNAMGWYRQAPGKEREFVAAISGSGGSTYYADSVKGRFTISRDNAKNTVYLQMNSLKPEDTAVYYCATAGRYGRYRTYPYRSKYDYWGQGTQVTVSS	high polyreactivity
KVQLVESGGGLVQAGGSLRLSCAPSGRTFRSNGMGWYIQAPGKERELVATISEGGGSTYYADSVKGRFTISRDNAKNTVYLEMISLKPEDSAVYFCAADKWYVLHYLDMNYWGQGTQVTVSS	high polyreactivity
KVQLVESGGVLVQAGGSLRLICAASGRTFYGYAMGWSRQAPGKERELVAGITSGGSTTYADSVKGRFTISRDHAKKTVYLQMNSLKPEDTAVYYCAKKWYRTTRAYVFRSYDYWGQGTQVTVSS	high polyreactivity
KVQLVESGLGLVQAGGSLRISCAASGSIFTQYTMGWYRQAHGKERELVASISDSGGSTYYADSVKGRFTISRDNAKNTVYLQMNSLKPEDTSVYYCASRHDRPRESNPYDYWGQGTQVTVSS	low polyreactivity
KVQRVDSGGGLVQAGGSLRLSCAASGSILGPYAMGWYRQAPGKERELVAGISGSGTRTYYADSVKGRFTISRDNAKNTVYLQMNSLKPEDTAVYYCAARYYSSWFRYPSYDYWGQGTQVTVSS	high polyreactivity
KVQVVESGGGLVQAGGSLRLSCAASGRIFGVYAMGWYRQAPGKERELVAAINYSGTRTYYADSVKGRFTISRDNAKNTVYLQMNSLKPEDSAVYYCAARRGSYSVTEYWGQGTQVTVSS	high polyreactivity
LVQHVQSGGGLVQAGGSLRVSCAASGPTLDSNAMGWYRQAPGKERELVAAISSAGSTNYPDSVKGRFTISRDNAKNTVYLQMNSLKPEDTAVYYSAADLIGSHDYWGQGTQVTVSS	low polyreactivity
LVQLQERVGVLVQAGGRLRLNCAASGTISPGGYMGWYRQAPGKELELVASINVGGSTNYADSVKGRFTISRDNAKNTVYLQMNRLKPEDNAVYYCAVWGRNRLQLSYWGQGTQVTVSS	low polyreactivity
LVQLQESGGGLVQAGGSLRLSCAASGTISPGGYMGWYRQAPGQERELVASINVGGSTNYADSVKGRFTISRDNAKNPVDLQMNSLKPEDNAVYYCAVWGRNRLQLSYWGQGTQVTVSS	low polyreactivity

Sequence	polyreactivity (PSR sort gate)
LVQLVESGGGLVQAGGSLRLSCAASGFIFFGEYVMGWYRQAPGKEREFVAAITDSDGSTYYADSVKGSFTISRDNGKNTVYLQMISLKPEDTAVYYCAAERVYSDMDYWGQGTQVTVSS	low polyreactivity
LVQLVESGGGLVQAGGSLRLSCAASGFISPSYALGWYRQAPGKERELVAAIRSSDGSTYYADSVKGRFTISRDNAKNTAYVQMNSRKPEDTAVYYCAAGGSSYRDDYWGQGSQVTVSS	low polyreactivity
LVQLVESGGGLVQAGGSLRLSCAASGSICNANAMGWYRQAPGKERELVAGIRSGSSTNYADSVKGRVTISRDNAKNTVYLQMNSLKPEDTPVYYCATEGYWVYGFDDEYWGQGTQVTVSS	low polyreactivity
LVQLVESGGGLVQAGGSLRLSCAASGSTFDGYAMGWYRQAPGKERELVAAIAYSGSSTYYADSVTGRFTISRDNSKNTVYIQMNSQKQEDTAVYYCAVDDTHPFGPDGGGDYWGQGTQVTVSS	low polyreactivity
NVQLVESGGGLVQAGGSLRLSCAASGRTFPTYAMGWYRQAPGKERELVAAISSSGGSTYYADSVKGRFTISRDNAKNTVYLQMNSLKPEDTAVYYCAALRARNLNPGYDYWGQGTQVTVSS	low polyreactivity
PLQLVESGGGLVQAGGSLRLSCAATGFIFAVNAMGWYRQAPGKERELVAAISSSGTTNYADSVKGRFTISRDNAKNTVYLQMNSLKPEDTAVYYCAADYHGSPEYDYWGQGTQVTVSS	low polyreactivity
PVKLVESGGGLVQAGGSLRLSCAASGFTFFRNAMGWYRQAPGKERELVAAISGSGGRTYDADSVKGRFTISRDNAKNPVYLQLNSLKLEDTAVYYCAAVPVDPGYDYWGQGTQVTVSS	high polyreactivity
PVQLQESGGGLVQAGGSLRLSCAASGNIFDADIMGWYRQAPGKERELVACIADGGSTNYADSVKGRFTISRDNAKNTVYLQMNSLKPEDTAVYYCAAIAYPDIPTCFDYDSDYFIRGQGTQVTVSS	low polyreactivity
PVQLVEAGGGLVQAGGSLRLSCAASGFTIRIYTMGWYRQAPGKERELVAAISSRGGSTYYADSVKGRFTISRDNAKITVYLQMNSLKPEDTAVYYCAKTPYYRYAKQRYTSSHDYWGQGTQVTVSS	high polyreactivity
PVQLVESGGGLVQAGGSLRISCAASGRSFYVYAMGWYRQAPGKEREFVARITSNGGSPTYADSVKGRFTISRDKAKNTVYLQMNSLKPEDTAVYYCNADDGIHPNASPSFPQYDYWGPGTQVTVSS	low polyreactivity
PVQLVESGGGLVQAGGSLRLSCAAAGLTFPPNAMGWYRQAPGKERELVADSGGSTNYADSVKGRFTISRDNAKNTVYLQMNSLNPEDTAVYYCAVPPYSDGQWDDYWGQGTQVTVSS	low polyreactivity
PVQLVESGGGLVQAGGSLRLSCAASGFIFRRNAMGWYRQAPGKERELVASIRSGGSTKYADSVKGRFTISRDNAKNTVYLQMTSLKPEDTAVYYCNAEDPGYAVRWYWFKYDYWGQGTQVSVSS	low polyreactivity
PVQLVESGGGLVQAGGSLRLSCAASGNAMGWYRQAPGKERELVASINRSGGRTYYADSVKGRFTISRDNAKNTVYLQMNSLKPEDTAVYYCAARPHYDSDYWGQGTQVTVSS	low polyreactivity
PVQLVESGGGLVQAGGSLRLSCAASGRIFKPYAMGWYRQAPGKERELVAAISGSGTRTYYADSVKGRFTISRANAKNTVYLQMNSLKPEDTAVYFCAAAYYSTYRNRMDYWGQGTQVTVSS	high polyreactivity
PVQLVESGGGLVQAGGSLRLSCAASGRILPSNAMGWYRQAPGKERELVAGITSGGSTDYADSVKGRFTISRDNAKNTVYLQMNSLNPVDTAVYYCAARYFHHYWGDLEVEFEYWGQGTQVTVSS	low polyreactivity
PVQLVESGGGLVQAGGSLRLSCAASGSIFPSYAMGWYRQAPGKERELVATIGRGGTTNYADSVKGRFTISRDNAKNTVYLQKNSLKPEDTGVYYCNAERIWRYKYGYDYWGQGTQVTVSS	high polyreactivity
PVQLVESGGGLVQAGGSLRLSCAASGSIFVTYAMGWYRQAPGKERELVATITYSGGSTSYADSVKGRFTISRDNAKNTVYLQMNSLKPEDTAVYYCAADLDSDFDYWGQGTQVTVSS	low polyreactivity
PVQLVESGGGLVQAGGSLRLSCADSGSIFRKYARGWYRQAPGKERELVAAITYGGSSTYYADSVKGRFTISRDNAKKTVYLQRNSLKPQDTAVYYFINDRPSYPAYGHTQYVVQMDYWGQGTQVTVSS	low polyreactivity
PVQLVESGGGLVQAGGSLRLTCAASGRIFTGYAMGWYRQAPGKERELVAAISRGGSTNYADSVKGRFTISRDNEKNTVYLLMNSLKPEDTAFYYCAAGFDWDRGDYWGQGTQVTVSS	low polyreactivity
PVQLVESGVCLVQAGGSLRLSCATPGSTIDFYAMGWYRQAPGKERELVARISSGGGRTYYADSVKGRFTISRDNAKNTVYLQMISLKPEDTAVYYCAAAYWYLDYYWGQGTQVTVSS	low polyreactivity

— the nanobody polyreactivity screen of Harvey et al. (2022)
